Assay results from patent US20250066499A1 (SUNSHINE GUOJIAN PHARMACEUTICAL SHANGHAI, published 2025).

T1: CD73-ND-his (human, UniProt P21589 27-317)
T1 construct: Biotinylated and captured on streptavidin in the ELISA
T1 sequence: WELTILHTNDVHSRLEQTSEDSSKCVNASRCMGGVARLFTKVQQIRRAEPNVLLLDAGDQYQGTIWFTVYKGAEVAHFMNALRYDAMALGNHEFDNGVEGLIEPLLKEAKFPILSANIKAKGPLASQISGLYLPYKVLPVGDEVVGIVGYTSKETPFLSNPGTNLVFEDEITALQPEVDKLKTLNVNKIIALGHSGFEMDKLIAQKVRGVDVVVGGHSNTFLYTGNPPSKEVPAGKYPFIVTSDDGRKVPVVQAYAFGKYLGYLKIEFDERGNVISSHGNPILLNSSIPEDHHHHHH

T2: CD73-ND-T183A (human, UniProt P21589 27-317)
T2 construct: Alanine mutant of CD73-ND
T2 sequence: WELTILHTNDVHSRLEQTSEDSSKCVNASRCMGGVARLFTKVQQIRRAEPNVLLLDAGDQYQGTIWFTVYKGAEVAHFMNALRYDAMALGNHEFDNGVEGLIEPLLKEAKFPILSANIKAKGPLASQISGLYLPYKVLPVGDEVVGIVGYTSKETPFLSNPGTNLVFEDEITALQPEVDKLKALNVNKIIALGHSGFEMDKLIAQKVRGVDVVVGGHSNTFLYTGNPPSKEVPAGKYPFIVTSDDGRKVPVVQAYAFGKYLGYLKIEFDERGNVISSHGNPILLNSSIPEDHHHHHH

T3: CD73-ND-N185A (human, UniProt P21589 27-317)
T3 construct: Alanine mutant of CD73-ND
T3 sequence: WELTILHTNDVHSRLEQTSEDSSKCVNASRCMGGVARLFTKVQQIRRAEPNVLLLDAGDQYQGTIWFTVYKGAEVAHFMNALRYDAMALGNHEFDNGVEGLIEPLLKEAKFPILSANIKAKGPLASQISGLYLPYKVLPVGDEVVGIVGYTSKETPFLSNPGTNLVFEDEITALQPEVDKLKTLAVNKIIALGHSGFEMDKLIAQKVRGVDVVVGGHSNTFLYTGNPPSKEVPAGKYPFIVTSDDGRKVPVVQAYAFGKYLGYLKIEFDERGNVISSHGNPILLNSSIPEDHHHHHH

T4: CD73-ND-V144A (human, UniProt P21589 27-317)
T4 construct: Alanine mutant of CD73-ND
T4 sequence: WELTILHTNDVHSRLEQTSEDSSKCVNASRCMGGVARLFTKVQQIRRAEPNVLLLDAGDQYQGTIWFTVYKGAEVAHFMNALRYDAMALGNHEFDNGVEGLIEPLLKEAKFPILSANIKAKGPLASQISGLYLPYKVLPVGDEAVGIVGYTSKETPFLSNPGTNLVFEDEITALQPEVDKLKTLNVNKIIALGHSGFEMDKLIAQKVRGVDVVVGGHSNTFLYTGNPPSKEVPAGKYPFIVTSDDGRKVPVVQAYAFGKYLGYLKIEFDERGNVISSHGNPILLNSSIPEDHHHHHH

T5: CD73-ND-K180A (human, UniProt P21589 27-317)
T5 construct: Alanine mutant of CD73-ND
T5 sequence: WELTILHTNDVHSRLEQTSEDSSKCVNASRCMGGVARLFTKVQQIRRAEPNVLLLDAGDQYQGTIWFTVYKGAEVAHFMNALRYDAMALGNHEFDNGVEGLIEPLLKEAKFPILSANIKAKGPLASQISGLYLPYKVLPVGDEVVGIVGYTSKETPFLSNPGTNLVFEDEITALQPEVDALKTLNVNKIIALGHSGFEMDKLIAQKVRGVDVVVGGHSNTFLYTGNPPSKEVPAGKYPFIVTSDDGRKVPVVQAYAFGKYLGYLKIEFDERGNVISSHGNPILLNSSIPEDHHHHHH

T6: CD73-ND-K182A (human, UniProt P21589 27-317)
T6 construct: Alanine mutant of CD73-ND
T6 sequence: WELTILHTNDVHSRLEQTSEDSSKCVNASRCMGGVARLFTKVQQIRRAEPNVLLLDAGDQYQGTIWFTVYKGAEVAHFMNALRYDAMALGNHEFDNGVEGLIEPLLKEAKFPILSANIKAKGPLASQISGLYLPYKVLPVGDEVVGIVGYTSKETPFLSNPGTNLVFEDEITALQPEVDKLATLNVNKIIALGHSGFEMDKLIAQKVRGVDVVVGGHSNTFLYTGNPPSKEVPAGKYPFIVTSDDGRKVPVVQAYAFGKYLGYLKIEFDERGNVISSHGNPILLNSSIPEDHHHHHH


Key:
[1] = molecular target: T1, CD73-ND-his; test: ELISA as in Example 3, antigen CD73-ND-his, antibody titrated, absorbance 450 nm
[2] = molecular target: T2, CD73-ND-T183A; test: ELISA, biotinylated antigen on streptavidin plate
Experimental: (§1) The ELISA plates were coated with SA protein diluted to 1.5 μg/mL in coating buffer (50 mM carbonate coating buffer, pH 9.6) and incubated overnight at 4° C. The supernatant was discarded, and the plates were washed three times with PBST. Then, 5% skimmed milk powder prepared with PBS was added for blocking and the plates were incubated for 2 h at 37° C. After washing the plates once with PBST, CD73-biotin protein (prepared by biotinylating CD73-His protein according to the EZ-Link NHS-Biotin Reagent instructions) was diluted to 0.5 μg/mL and added at 100 μL/well for incubation at room temperature for 1 h. The plates were washed three times with PBST, and the prepared murine-derived monoclonal antibodies against human CD73 were serially diluted with 1% BSA buffer prepared with PBST and added to the ELISA plates at 100 μl/well. The plates were incubated at 37° C. for 1 h. After washing the plates three times with PBST, HRP-labeled goat anti-mouse IgG secondary antibody was added and the plates were incubated for 30 min at 37° C. After washing the plates three times with PBST, the residual droplets were patted dry on absorbent paper as much as possible. Then, 100 μl of TMB color developing solution was added to each well, and the plates were incubated in the dark at room temperature for 5 min for color development. Subsequently, 50 μl of 2M H₂SO₄ stop solution was added to each well to terminate the substrate reaction. The OD values were read at 450 nm using a multimode microplate reader to analyze the binding ability of the tested antibodies to the target antigen human CD73-His.
(§2) Referring to the experimental method in Example 3, the affinity of 48A11-HuV33 for various mutant proteins of CD73-ND was determined. The SA protein was diluted to 1 μg/mL for coating the ELISA plates, and the biotinylated CD73 protein (CD73-biotin) was used at a concentration of 0.1 μg/mL.

[3] = molecular target: T3, CD73-ND-N185A; test: ELISA, biotinylated antigen on streptavidin plate
Experimental: as §1, §2

[4] = molecular target: T4, CD73-ND-V144A; test: ELISA, biotinylated antigen on streptavidin plate
Experimental: as §1, §2

[5] = molecular target: T5, CD73-ND-K180A; test: ELISA, biotinylated antigen on streptavidin plate
Experimental: as §1, §2

[6] = molecular target: T6, CD73-ND-K182A; test: ELISA, biotinylated antigen on streptavidin plate
Experimental: as §1, §2

| Binder | EC50 (read off the curve) [1] | EC50 [2] | EC50 [3] | EC50 [4] | EC50 [5] | EC50 [6] |
| --- | --- | --- | --- | --- | --- | --- |
| 56B10-HuV31 (antibody, human IgG4, V domains shown, Humanized) VH: QVQLQQSGAEVKKPGASVKVSCKASGYTFTRYYIYWVRQRPGQGLEWIGWIYPGNFNTKYNEKFKGRATLTADTSASTAYMELSSLTSEDTAVYYCARDVYDYAGFAYWGQGTLVTVSS VL: DIQLTQSPSFLSASVGDRVTITCKASQGVATAVAWYQQKPGQSPKLLIYWASTRHTGVPDRFSGSGSGTEFTLTISSLQPEDFATYYCQQYSSYPWTFGQGTKVEIK | ~0.08 nM |  |  |  |  |  |
| 48A11-HuV33 (antibody, human IgG4, V domains shown, Humanized) VH: QVQLVQSGAEVKKPGASVKVSCKASGYTFTSYWMHWVRQAPGQGLEWIGEINPSIGRTNYNEKFKSRVTLTRDTSTSTAYMELSSLRSEDTAVYYCARRVYGTMDYWGQGTLVTVSS VL: DIQMTQSPSSLSASVGDRVTITCKASQDINSYLSWFQQKPGKSPKLLIYRANIWVDGVPSRFSGSGSGQDYTFTISSLQPEDIATYYCLQYDELYTFGQGTKVEIK |  | 0.159 nM | 0.188 nM | 0.29 nM | 0.321 nM | 0.121 nM |
